1 substance from publication doi:10.1101/2023.04.03.535215 can be followed below.

The target of this assay is SARS-CoV-2 S protein receptor-binding domain (SARS-CoV-2) (UniProt P0DTC2). Nature of the assay: ELISA.

“Native human surfactant protein A (from UniProt Q8IWL2 21-248) (natural protein)” yielded a percent decrease of binding in 10 mM EDTA of 59%.
